In assay [1] the target is T1, human ICOS, full-length, expressed on transfected Expi293 cells (human, UniProt Q9Y6W8 21-199).
T1 construct: whole, on cells
T1 sequence (looked up): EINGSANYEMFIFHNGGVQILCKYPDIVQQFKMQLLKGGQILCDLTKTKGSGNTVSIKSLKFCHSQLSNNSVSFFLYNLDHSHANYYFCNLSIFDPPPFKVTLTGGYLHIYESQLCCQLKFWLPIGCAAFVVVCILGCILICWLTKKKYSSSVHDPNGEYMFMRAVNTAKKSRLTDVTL
The assay can be described thus: flow cytometry, 100 nM, Expi293 cells with human ICOS.

The target in assay [2] is T2, human CD28, full-length, expressed on transfected Expi293 cells (human, UniProt P10747 19-220).
T2 construct: whole, on cells
The assay can be described thus: flow cytometry, 100 nM, Expi293 cells with human CD28.

For assay [3], the target named is T3, human CTLA-4, full-length, expressed on transfected Expi293 cells (human, UniProt P16410 36-223).
T3 construct: whole, on cells
T3 sequence (P16410 36-223): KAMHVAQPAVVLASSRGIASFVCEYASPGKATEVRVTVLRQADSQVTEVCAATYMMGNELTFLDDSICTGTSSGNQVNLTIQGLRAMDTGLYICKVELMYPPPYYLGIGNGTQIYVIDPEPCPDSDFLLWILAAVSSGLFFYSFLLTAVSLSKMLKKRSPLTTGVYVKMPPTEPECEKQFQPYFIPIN
The assay can be described thus: flow cytometry, 100 nM, Expi293 cells with human CTLA-4.

The results in this text go back to patent US20230235012A1 (ALPINE IMMUNE SCIENCES, published 2023).

B1: variant ICOSL IgV-Fc fusion N52S/N57H/Q100E (Fc fusion)
chain: DTQEKEVRAMVGSDVELSCACPEGSRFDLNDVYVYWQTSESKTVVTYHIPQSSSLEHVDSRYRNRALMSPAGMLRGDFSLRLFNVTPQDEQKFHCLVLSESLGFQEVLSVEVTLHVAANFSVGSGGGGSEPKSSDKTHTCPPCPAPEAEGAPSVFLFPPKPKDTLMISRTPEVTCVVVDVSHEDPEVKFNWYVDGVEVHNAKTKPREEQYNSTYRVVSVLTVLHQDWLNGKEYKCKVSNKALPAPIEKTISKAKGQPREPQVYTLPPSREEMTKNQVSLTCLVKGFYPSDIAVEWESNGQPENNYKTTPPVLDSDGSFFLYSKLTVDKSRWQQGNVFSCSVMHEALHNHYTQKSLSLSPG
Take B1: the MFI in assay [1] turned out to be 258000 MFI; in assay [2] it was 117000 MFI; in assay [3] it was 302000 MFI. Also, the “MFI ratio to WT (ΔWT)” value turned out to be 1.22 fold in assay [1], 5.2 fold in assay [2] and 0.92 fold in assay [3].

B2: variant ICOSL IgV-Fc fusion N52T/N57H/Q100A (Fc fusion)
chain: DTQEKEVRAMVGSDVELSCACPEGSRFDLNDVYVYWQTSESKTVVTYHIPQTSSLEHVDSRYRNRALMSPAGMLRGDFSLRLFNVTPQDEQKFHCLVLSASLGFQEVLSVEVTLHVAANFSVGSGGGGSEPKSSDKTHTCPPCPAPEAEGAPSVFLFPPKPKDTLMISRTPEVTCVVVDVSHEDPEVKFNWYVDGVEVHNAKTKPREEQYNSTYRVVSVLTVLHQDWLNGKEYKCKVSNKALPAPIEKTISKAKGQPREPQVYTLPPSREEMTKNQVSLTCLVKGFYPSDIAVEWESNGQPENNYKTTPPVLDSDGSFFLYSKLTVDKSRWQQGNVFSCSVMHEALHNHYTQKSLSLSPG
As for B2, the results for the MFI in assay [1], in assay [2] and in assay [3] were 220000 MFI, 113000 MFI and 350000 MFI, respectively. Further, the results for the “MFI ratio to WT (ΔWT)” value in assay [1], in assay [2] and in assay [3] were 1.04 fold, 5 fold and 1.06 fold, respectively.

B3: variant ICOSL IgV-Fc fusion N52S/N57L/Q100S (Fc fusion)
chain: DTQEKEVRAMVGSDVELSCACPEGSRFDLNDVYVYWQTSESKTVVTYHIPQSSSLELVDSRYRNRALMSPAGMLRGDFSLRLFNVTPQDEQKFHCLVLSSSLGFQEVLSVEVTLHVAANFSVGSGGGGSEPKSSDKTHTCPPCPAPEAEGAPSVFLFPPKPKDTLMISRTPEVTCVVVDVSHEDPEVKFNWYVDGVEVHNAKTKPREEQYNSTYRVVSVLTVLHQDWLNGKEYKCKVSNKALPAPIEKTISKAKGQPREPQVYTLPPSREEMTKNQVSLTCLVKGFYPSDIAVEWESNGQPENNYKTTPPVLDSDGSFFLYSKLTVDKSRWQQGNVFSCSVMHEALHNHYTQKSLSLSPG
For B3, the MFI came out at 269000 MFI in assay [1], 108000 MFI in assay [2] and 197000 MFI in assay [3]. Further, the “MFI ratio to WT (ΔWT)” value worked out at 1.27 fold in assay [1], 4.8 fold in assay [2] and 0.6 fold in assay [3].

B4: variant ICOSL IgV-Fc fusion N52V/N57T/Q100L (Fc fusion)
chain: DTQEKEVRAMVGSDVELSCACPEGSRFDLNDVYVYWQTSESKTVVTYHIPQVSSLETVDSRYRNRALMSPAGMLRGDFSLRLFNVTPQDEQKFHCLVLSLSLGFQEVLSVEVTLHVAANFSVGSGGGGSEPKSSDKTHTCPPCPAPEAEGAPSVFLFPPKPKDTLMISRTPEVTCVVVDVSHEDPEVKFNWYVDGVEVHNAKTKPREEQYNSTYRVVSVLTVLHQDWLNGKEYKCKVSNKALPAPIEKTISKAKGQPREPQVYTLPPSREEMTKNQVSLTCLVKGFYPSDIAVEWESNGQPENNYKTTPPVLDSDGSFFLYSKLTVDKSRWQQGNVFSCSVMHEALHNHYTQKSLSLSPG
In the case of B4, the MFI came to 29200 MFI in assay [1], 6200 MFI in assay [2] and 11500 MFI in assay [3]. The “MFI ratio to WT (ΔWT)” value in assay [1] amounted to 0.14 fold; in assay [2], 0.3 fold; in assay [3], 0.03 fold.

B5: variant ICOSL IgV-Fc fusion N52S/N57Y/Q100S (Fc fusion)
chain: DTQEKEVRAMVGSDVELSCACPEGSRFDLNDVYVYWQTSESKTVVTYHIPQSSSLEYVDSRYRNRALMSPAGMLRGDFSLRLFNVTPQDEQKFHCLVLSSSLGFQEVLSVEVTLHVAANFSVGSGGGGSEPKSSDKTHTCPPCPAPEAEGAPSVFLFPPKPKDTLMISRTPEVTCVVVDVSHEDPEVKFNWYVDGVEVHNAKTKPREEQYNSTYRVVSVLTVLHQDWLNGKEYKCKVSNKALPAPIEKTISKAKGQPREPQVYTLPPSREEMTKNQVSLTCLVKGFYPSDIAVEWESNGQPENNYKTTPPVLDSDGSFFLYSKLTVDKSRWQQGNVFSCSVMHEALHNHYTQKSLSLSPG
Consider B5, for which the MFI in assay [1] turned out to be 224000 MFI; in assay [2], 161000 MFI; in assay [3], 205000 MFI. Also, the results for the “MFI ratio to WT (ΔWT)” value in assay [1], in assay [2] and in assay [3] were 1.06 fold, 7.2 fold and 0.62 fold, respectively.

B6: variant ICOSL IgV-Fc fusion N52T/N57H/Q100S (Fc fusion)
chain: DTQEKEVRAMVGSDVELSCACPEGSRFDLNDVYVYWQTSESKTVVTYHIPQTSSLEHVDSRYRNRALMSPAGMLRGDFSLRLFNVTPQDEQKFHCLVLSSSLGFQEVLSVEVTLHVAANFSVGSGGGGSEPKSSDKTHTCPPCPAPEAEGAPSVFLFPPKPKDTLMISRTPEVTCVVVDVSHEDPEVKFNWYVDGVEVHNAKTKPREEQYNSTYRVVSVLTVLHQDWLNGKEYKCKVSNKALPAPIEKTISKAKGQPREPQVYTLPPSREEMTKNQVSLTCLVKGFYPSDIAVEWESNGQPENNYKTTPPVLDSDGSFFLYSKLTVDKSRWQQGNVFSCSVMHEALHNHYTQKSLSLSPG
Turning to B6, the MFI in assay [1] amounted to 259000 MFI; in assay [2], 143000 MFI; in assay [3], 378000 MFI. Also, the “MFI ratio to WT (ΔWT)” value in assay [1] came out at 1.22 fold; in assay [2], 6.4 fold; in assay [3] it was 1.14 fold.

B7: variant ICOSL IgV-Fc fusion N57Q/Q100P (Fc fusion)
chain: DTQEKEVRAMVGSDVELSCACPEGSRFDLNDVYVYWQTSESKTVVTYHIPQNSSLEQVDSRYRNRALMSPAGMLRGDFSLRLFNVTPQDEQKFHCLVLSPSLGFQEVLSVEVTLHVAANFSVGSGGGGSEPKSSDKTHTCPPCPAPEAEGAPSVFLFPPKPKDTLMISRTPEVTCVVVDVSHEDPEVKFNWYVDGVEVHNAKTKPREEQYNSTYRVVSVLTVLHQDWLNGKEYKCKVSNKALPAPIEKTISKAKGQPREPQVYTLPPSREEMTKNQVSLTCLVKGFYPSDIAVEWESNGQPENNYKTTPPVLDSDGSFFLYSKLTVDKSRWQQGNVFSCSVMHEALHNHYTQKSLSLSPG
As for B7, the MFI in assay [1] is 205000 MFI; in assay [2], 15200 MFI; in assay [3] it was 69100 MFI. Moreover, the “MFI ratio to WT (ΔWT)” value was 0.97 fold in assay [1], 0.7 fold in assay [2] and 0.21 fold in assay [3].

B8: variant ICOSL IgV-Fc fusion N52S/N57Y/Q100M (Fc fusion)
chain: DTQEKEVRAMVGSDVELSCACPEGSRFDLNDVYVYWQTSESKTVVTYHIPQSSSLEYVDSRYRNRALMSPAGMLRGDFSLRLFNVTPQDEQKFHCLVLSMSLGFQEVLSVEVTLHVAANFSVGSGGGGSEPKSSDKTHTCPPCPAPEAEGAPSVFLFPPKPKDTLMISRTPEVTCVVVDVSHEDPEVKFNWYVDGVEVHNAKTKPREEQYNSTYRVVSVLTVLHQDWLNGKEYKCKVSNKALPAPIEKTISKAKGQPREPQVYTLPPSREEMTKNQVSLTCLVKGFYPSDIAVEWESNGQPENNYKTTPPVLDSDGSFFLYSKLTVDKSRWQQGNVFSCSVMHEALHNHYTQKSLSLSPG
Consider B8, for which the MFI in assay [1] turned out to be 303000 MFI; in assay [2], 157000 MFI; in assay [3] it was 395000 MFI. The “MFI ratio to WT (ΔWT)” value is 1.43 fold in assay [1], 7 fold in assay [2] and 1.2 fold in assay [3].

B9: variant ICOSL IgV-Fc fusion N52S/N57M/Q100S (Fc fusion)
chain: DTQEKEVRAMVGSDVELSCACPEGSRFDLNDVYVYWQTSESKTVVTYHIPQSSSLEMVDSRYRNRALMSPAGMLRGDFSLRLFNVTPQDEQKFHCLVLSSSLGFQEVLSVEVTLHVAANFSVGSGGGGSEPKSSDKTHTCPPCPAPEAEGAPSVFLFPPKPKDTLMISRTPEVTCVVVDVSHEDPEVKFNWYVDGVEVHNAKTKPREEQYNSTYRVVSVLTVLHQDWLNGKEYKCKVSNKALPAPIEKTISKAKGQPREPQVYTLPPSREEMTKNQVSLTCLVKGFYPSDIAVEWESNGQPENNYKTTPPVLDSDGSFFLYSKLTVDKSRWQQGNVFSCSVMHEALHNHYTQKSLSLSPG
B9: the MFI was 312000 MFI in assay [1], 134000 MFI in assay [2] and 228000 MFI in assay [3]. The figures for the “MFI ratio to WT (ΔWT)” value in assay [1], in assay [2] and in assay [3] were 1.47 fold, 6 fold and 0.69 fold, respectively.

B10: variant ICOSL IgV-Fc fusion N52S/N57Y/Q100V (Fc fusion)
chain: DTQEKEVRAMVGSDVELSCACPEGSRFDLNDVYVYWQTSESKTVVTYHIPQSSSLEYVDSRYRNRALMSPAGMLRGDFSLRLFNVTPQDEQKFHCLVLSVSLGFQEVLSVEVTLHVAANFSVGSGGGGSEPKSSDKTHTCPPCPAPEAEGAPSVFLFPPKPKDTLMISRTPEVTCVVVDVSHEDPEVKFNWYVDGVEVHNAKTKPREEQYNSTYRVVSVLTVLHQDWLNGKEYKCKVSNKALPAPIEKTISKAKGQPREPQVYTLPPSREEMTKNQVSLTCLVKGFYPSDIAVEWESNGQPENNYKTTPPVLDSDGSFFLYSKLTVDKSRWQQGNVFSCSVMHEALHNHYTQKSLSLSPG
B10: the results for the MFI in assay [1], in assay [2] and in assay [3] were 219000 MFI, 126000 MFI and 305000 MFI, respectively. For the same molecule, the entries for the “MFI ratio to WT (ΔWT)” value in assay [1], in assay [2] and in assay [3] were 1.03 fold, 5.7 fold and 0.92 fold, respectively.

B11: variant ICOSL ECD-Fc fusion, full length N52H/N57Y/Q100R/F172S (Fc fusion, not shown: a dimerising Fc or GST)
chain: DTQEKEVRAMVGSDVELSCACPEGSRFDLNDVYVYWQTSESKTVVTYHIPQHSSLEYVDSRYRNRALMSPAGMLRGDFSLRLFNVTPQDEQKFHCLVLSRSLGFQEVLSVEVTLHVAANFSVPVVSAPHSPSQDELTFTCTSINGYPRPNVYWINKTDNSLLDQALQNDTVSLNMRGLYDVVSVLRIARTPSVNIGCCIENVLLQQNLTVGSQTGNDIGERDKITENPVSTGEKNAAT
Take B11: the MFI in assay [1] was determined as 238000 MFI; in assay [2], 138000 MFI; in assay [3], 606000 MFI. The “MFI ratio to WT (ΔWT)” value in assay [1] came to 1.12 fold; in assay [2], 6.2 fold; in assay [3], 1.83 fold.
